# Data taken from patent publication US20180194839A1.
# Key:
# [1] = target: recombinant human IL-17A/F heterodimer (human) (UniProt Q16552); assay: cell-based or functional assay
# [2] = target: recombinant rat IL-17A (SEQ ID NO: 85) (rat) (UniProt Q61453); assay: cell-based or functional assay
# [3] = target: recombinant mouse IL-17A/F (R&D Systems Cat#5390-IL) (mouse) (UniProt Q62386); assay: cell-based or functional assay
# [4] = target: recombinant human IL-17A (SEQ ID NO: 76) (human) (UniProt Q16552); assay: cell-based or functional assay
# [5] = target: recombinant mouse IL-17A (SEQ ID NO: 83) (mouse) (UniProt Q62386); assay: cell-based or functional assay
# [6] = target: recombinant mouse IL-17F (SEQ ID NO: 84) (mouse) (UniProt Q7TNI7); assay: cell-based or functional assay
# [7] = target: recombinant human IL-17F (SEQ ID NO: 77) (human) (UniProt Q96PD4); assay: cell-based or functional assay
# BSA [8] = target: BSA (UniProt P02769); assay: ELISA, BSA wells, control Ab 5 µg/ml (control antibody not identified)
# BSA [9] = target: BSA (UniProt P02769); assay: ELISA, BSA wells, control Ab 1 µg/ml (control antibody not identified)
# recombinant human IL-17F (SEQ ID NO: 77) (human), sequence (Q96PD4 other isoform, or with tags, fused parts or gaps limits assumed): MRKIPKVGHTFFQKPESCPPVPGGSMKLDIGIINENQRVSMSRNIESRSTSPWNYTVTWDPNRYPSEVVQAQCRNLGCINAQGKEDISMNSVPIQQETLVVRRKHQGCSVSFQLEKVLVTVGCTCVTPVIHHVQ
# recombinant human IL-17A/F heterodimer (human), sequence (Q16552 24-155 limits assumed, chain 1 of 2): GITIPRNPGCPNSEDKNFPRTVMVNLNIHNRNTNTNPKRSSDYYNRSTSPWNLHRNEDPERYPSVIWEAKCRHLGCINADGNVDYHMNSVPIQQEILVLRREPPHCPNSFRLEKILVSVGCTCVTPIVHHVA
# recombinant human IL-17A/F heterodimer (human), sequence (Q96PD4 31-163 limits assumed, chain 2 of 2, further chain): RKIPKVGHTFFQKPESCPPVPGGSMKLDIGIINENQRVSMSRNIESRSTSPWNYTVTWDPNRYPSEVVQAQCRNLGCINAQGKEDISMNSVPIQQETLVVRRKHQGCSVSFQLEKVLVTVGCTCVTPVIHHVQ
# recombinant human IL-17A (SEQ ID NO: 76) (human), sequence (Q16552 other isoform, or with tags, fused parts or gaps limits assumed): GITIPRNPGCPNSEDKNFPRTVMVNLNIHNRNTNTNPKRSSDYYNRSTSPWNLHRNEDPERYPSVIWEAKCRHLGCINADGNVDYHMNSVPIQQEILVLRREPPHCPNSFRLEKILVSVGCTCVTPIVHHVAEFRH
# BSA, sequence (P02769 25-607 limits assumed): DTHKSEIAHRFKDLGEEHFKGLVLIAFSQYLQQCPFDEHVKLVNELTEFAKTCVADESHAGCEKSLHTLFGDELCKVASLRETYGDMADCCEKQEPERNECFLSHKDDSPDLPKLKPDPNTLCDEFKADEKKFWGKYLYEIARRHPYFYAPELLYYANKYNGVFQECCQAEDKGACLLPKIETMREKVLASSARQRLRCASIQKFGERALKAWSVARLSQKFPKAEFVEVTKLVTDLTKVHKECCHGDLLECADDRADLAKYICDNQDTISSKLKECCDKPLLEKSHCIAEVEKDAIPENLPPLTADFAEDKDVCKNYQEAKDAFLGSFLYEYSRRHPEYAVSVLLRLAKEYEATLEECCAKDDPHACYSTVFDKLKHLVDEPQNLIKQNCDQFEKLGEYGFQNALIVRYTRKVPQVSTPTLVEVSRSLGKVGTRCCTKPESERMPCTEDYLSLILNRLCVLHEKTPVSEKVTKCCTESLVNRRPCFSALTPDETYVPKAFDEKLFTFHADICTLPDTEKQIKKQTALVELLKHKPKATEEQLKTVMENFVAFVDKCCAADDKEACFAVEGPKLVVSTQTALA
# recombinant mouse IL-17F (SEQ ID NO: 84) (mouse), sequence (Q7TNI7 other isoform, or with tags, fused parts or gaps limits assumed): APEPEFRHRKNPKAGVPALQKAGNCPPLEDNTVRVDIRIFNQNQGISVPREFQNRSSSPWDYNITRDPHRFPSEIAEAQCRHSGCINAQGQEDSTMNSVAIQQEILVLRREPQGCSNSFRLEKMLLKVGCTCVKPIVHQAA
# recombinant mouse IL-17A/F (R&D Systems Cat#5390-IL) (mouse), sequence (Q62386 26-158 limits assumed, chain 1 of 2): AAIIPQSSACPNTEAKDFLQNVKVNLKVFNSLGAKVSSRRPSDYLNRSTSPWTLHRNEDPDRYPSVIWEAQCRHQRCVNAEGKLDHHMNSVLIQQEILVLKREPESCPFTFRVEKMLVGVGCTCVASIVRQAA
# recombinant mouse IL-17A/F (R&D Systems Cat#5390-IL) (mouse), sequence (Q7TNI7 29-161 limits assumed, chain 2 of 2, further chain): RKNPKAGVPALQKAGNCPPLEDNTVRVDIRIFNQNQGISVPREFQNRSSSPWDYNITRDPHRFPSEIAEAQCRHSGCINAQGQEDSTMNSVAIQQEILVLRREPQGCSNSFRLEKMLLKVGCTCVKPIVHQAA
# recombinant rat IL-17A (SEQ ID NO: 85) (rat), sequence (Q61453 other isoform, or with tags, fused parts or gaps limits assumed): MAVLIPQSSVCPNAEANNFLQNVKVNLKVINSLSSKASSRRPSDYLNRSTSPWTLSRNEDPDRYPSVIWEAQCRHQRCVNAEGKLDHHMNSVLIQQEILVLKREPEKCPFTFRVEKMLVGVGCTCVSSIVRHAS
# recombinant mouse IL-17A (SEQ ID NO: 83) (mouse), sequence (Q62386 other isoform, or with tags, fused parts or gaps limits assumed): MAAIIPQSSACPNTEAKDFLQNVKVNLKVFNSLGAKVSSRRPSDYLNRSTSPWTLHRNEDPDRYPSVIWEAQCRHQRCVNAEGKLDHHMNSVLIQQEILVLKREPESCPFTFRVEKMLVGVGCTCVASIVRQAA
"IC50, hu-GRO-alpha secretion by BJ cells; stimulus IL-17A/F (300 pM) + TNF-α (6 pM) [1]","IC50, hu-GRO-alpha secretion by BJ cells; stimulus IL-17A/F (3 nM) [1]","IC50, huIL-6 secretion by BJ cells; stimulus rhuIL-17A/F (300 pM) + rhuTNF-α (6 pM) [1]","IC50, huIL-6 secretion by BJ cells; stimulus rhuIL-17A/F (3 nM) [1]","IC50, mouse KC secretion by CMT-93 cells; stimulus rIL-17A (1 nM) [2]","IC50, mouse KC secretion by CMT-93 cells; stimulus mIL-17A/F (3 nM) [3]","IC50, hu-GRO-alpha secretion by BJ cells; stimulus IL-17A (30 pM) + TNF-α (6 pM) [4]","IC50, hu-GRO-alpha secretion by BJ cells; stimulus IL-17A (1 nM) [4]","IC50, huIL-6 secretion by BJ cells; stimulus rhuIL-17A (30 pM) + rhuTNF-α (6 pM) [4]","IC50, huIL-6 secretion by BJ cells; stimulus rhuIL-17A (1 nM) [4]","IC50, mouse KC secretion by CMT-93 cells; stimulus mIL-17A (1 nM) [5]","IC50, mouse KC secretion by CMT-93 cells; stimulus mIL-17F (30 nM) [6]","IC50, hu-GRO-alpha secretion by BJ cells; stimulus IL-17F (10 nM) + TNF-α (6 pM) [7]","IC50, hu-GRO-alpha secretion by BJ cells; stimulus IL-17F (30 nM) [7]","IC50, huIL-6 secretion by BJ cells; stimulus rhuIL-17F (10 nM) + rhuTNF-α (6 pM) [7]","IC50, huIL-6 secretion by BJ cells; stimulus rhuIL-17F (30 nM) [7]",O.D. (BSA [8]),O.D. (BSA [9]),Substance
> 3000 nM,> 100 nM,> 3000 nM,> 100 nM,> 3000 nM,> 3000 nM,> 3000 nM,> 100 nM,> 3000 nM,> 100 nM,> 3000 nM,> 3000 nM,> 3000 nM,> 1000 nM,> 3000 nM,> 1000 nM,–,–,Simulect® (antibody)
–,–,–,–,–,–,–,–,–,–,–,–,–,–,–,–,0.01 O.D.,0.149 O.D.,Control antibody (not identified for this antigen)
